Test results: article PMC7542595
Read-outs that look alike come from different tables or passages of the source.

Experiments:
Assay in all cases: fluorescence polarisation
[1] = molecular target: ERα-ctp (1), N-fluorescein-labeled C-terminal hexaphosphopeptide of ERα
[2] = molecular target: Task3-ctp (2), N-fluorescein-labeled C-terminal hexaphosphopeptide of Task3
[3] = molecular target: GpIBα-ctp (3), N-fluorescein-labeled C-terminal hexaphosphopeptide of GpIBα
[4] = molecular target: GpIBα-ctp (3), N-fluorescein-labeled C-terminal hexaphosphopeptide of GpIBα; remark: listed apart in the source
[5] = molecular target: Task3-ctp (2), N-fluorescein-labeled C-terminal hexaphosphopeptide of Task3; remark: listed apart in the source
[6] = molecular target: ERα-ctp (1), N-fluorescein-labeled C-terminal hexaphosphopeptide of ERα; remark: listed apart in the source

Row | Kd [1] [nM] | Kd [2] [nM] | Kd [3] [nM] | Kd [4] [nM] | Kd [5] [nM] | Kd [6] [nM] | Molecule
1 | 720 | 2400 | 18000 | 870 |  |  | human 14-3-3β (from UniProt P31946 1-246) (natural protein)
2 | 3400 | 6000 | 28000 | 1700 | 160 |  | human 14-3-3ε (from UniProt P62258 1-255) (natural protein)
3 | 1500 | 1300 | 20000 |  |  |  | human 14-3-3ζ (from UniProt P63104 1-245) (natural protein)
4 | 6600 | 2100 | 47000 |  |  |  | human 14-3-3σ (natural protein) MERASLIQKAKLAEQAERYEDMAAFMKGAVEKGEELSCEERNLLSVAYKNVVGGQRAAWRVLSSIEQKSNEEGSEEKGPEVREYREKVETELQGVCDTVLGLLDSHLIKEAGDAESRVFYLKMKGDYYRYLAEVATGDDKKRIIDSARSAYQEAMDISKKEMPPTNPIRLGLALNFSVFHYEIANSPEEAISLAKTTFDEAMADLHTLSEDSYKDSTLIMQLLRDNLTLWTADNAGEEGGEAPQEPQS
5 | 1100 | 2200 | 20000 |  |  | 130 | human 14-3-3τ (natural protein) MEKTELIQKAKLAEQAERYDDMATCMKAVTEQGAELSNEERNLLSVAYKNVVGGRRSAWRVISSIEQKTDTSDKKLQLIKDYREKVESELRSICTTVLELLDKYLIANATNPESKVFYLKMKGDYFRYLAEVACGDDRKQTIDNSQGAYQEAFDISKKEMQPTHPIRLGLALNFSVFYYEILNNPELACTLAKTAFDEAIAELDTLNEDSYKDSTLIMQLLRDNLTLWTSDSAGEECDAAEGAEN
